This is an account of results in patent US20210395344A1 (TWIST BIOSCIENCE, published 2021).

B1: 1-32 (antibody, V domains shown)
VH: EVQLLESGGGLVQPGGSLRLSCAASGFTFSSYAMYWVRQAPGKGLEWVSAISGSGGSTFYADSVKGRFTISRDNSKNTLYLQMNSLRAEDTAVYYCTRPPYGDYGDYWGQGTLVTVSS
VL: QSALTQPASVSGSPGQSITISCTGTSSDVGGYNLVSWYQQHPGKAPKLMIYEGNKRPSGVSNRFSGSKSGNTASLTISGLQAEDEADYYCCSYAGSSTFPVVFGGGTKLTVL
B2: 1-29 (antibody, V domains shown)
VH: EVQLLESGGGLVQPGGSLRLSCAASGFTFSSYAMYWVRQAPGKGLEWVSAISGSAGSTYYADSVKGRFTISRDNSKNTLYLQMNSLRAEDTAVYYCARDTNDFWSGYSIFDPWGQGTLVTVSS
VL: QSALTQPASVSGSPGQSITISCTGTSSDIGSYNLVSWYQQHPGKAPKLMIYEGTKRPSGVSNRFSGSKSGNTASLTISGLQAEDEADYYCCSYAGSRTYVFGGGTKLTVL
B3: 1-17 (antibody, V domains shown)
VH: B2 VH
VL: B2 VL
B4: 1-53 (antibody, V domains shown)
VH: EVQLLESGGGLVQPGGSLRLSCAASGFTFSSYTMSWVRQAPGKGLEWVSVISGSGGSTYYADSVKGRFTISRDNSKNTLYLQMNSLRAEDTAVYYCAREGYRDYLWYFDLWGQGTLVTVSS
VL: QSALTQPASVSGSPGQSITISCTGTSTDVGSYNLVSWYQQHPGKAPKLMIYEGTKRPSGVSNRFSGSKSGNTASLTISGLQAEDEADYYCCSYAGSYTSVVFGGGTKLTVL
B5: 1-12 (antibody, V domains shown)
VH: EVQLLESGGGLVQPGGSLRLSCAASGITFSSYAMSWVRQAPGKGLEWVSGISGSGGSTYYADSVKGRFTISRDNSKNTLYLQMNSLRAEDTAVYYCAKHGSGTIFGVVIAKYYFDYWGQGTLVTVSS
VL: B4 VL with T27S, S31H, Y97S, T98S, S99F
B6: 1-2 (antibody, V domains shown)
VH: EVQLLESGGGLVQPGGSLRLSCAASGFTFSSQAMSWVRQAPGKGLEWVSAISGSGGGTYYADSVKGRFTISRDNSKNTLYLQMNSLRAEDTAVYYCAKDRRFGEFDPWGQGTLVTVSS
VL: B4 VL with T27S, D28G, T54I, Y97S, T98S, S99F
B7: 1-27 (antibody, V domains shown)
VH: EVQLLESGGGLVQPGGSLRLSCAASGFTFSSYAMTWVRQAPGKGLEWVSAISGSGGGTYYADSVKGRFTISRDNSKNTLYLQMNSLRAEDTAVYYCASSSSWQFDYWGQGTLVTVSS
VL: B4 VL with T27S, D28Y, S31H, T54S, K55R, S99H, V100Y
B8: 1-33 (antibody, V domains shown)
VH: B1 VH with Y35I
VL: B4 VL with T27S, V35L, G53A, T54S, Y97R, S99P
B9: 1-42 (antibody, V domains shown)
VH: B5 VH with I27V, G50A, S52T
VL: B2 VL with I29V, S31R, T54G, G95S, R97S, Y99L

Residue numbers refer to the chain shown, from its start.

By Kd is commonly meant the free concentration of one partner at which half of the binding sites on the other are occupied at equilibrium, for simple one-to-one binding. Read a high Kd as lower affinity. What is called IC50 is the concentration at which inhibition is half-maximal. Low values mean greater potency in that assay, high ones weaker potency in that assay. What is called EC50 is the concentration that produces a half-maximal response. The low end stands for higher potency in that assay, the high end for lower potency in that assay.

The target of one test is T1, SARS-CoV-2 Spike Glycoprotein S1 (subunit 1) (SARS-CoV-2, UniProt P0DTC2 16-685).
T1 construct: also called S1 Monomer; SARS-CoV-2 S1
Put plainly: screening phage ELISA, mean. For orientation: In an ELISA, binding on a coated surface is turned into a signal by an enzyme label.
Regarding B1, the “ELISA (Avg)” value was 17.9.
As for B2, the “ELISA (Avg)” value worked out at 23.8.
Take B3: the “ELISA (Avg)” value was 27.4.
Same read-out and setting: to B4 belongs 21.7.
On to B5, for which the “ELISA (Avg)” value was determined as 25.7.
Same read-out and setting: the value for B6 was 24.2.
As to B7, the “ELISA (Avg)” value was 27.2.
Still for that read-out and setting: the value for B8 was 17.6.

Another test has as its target T2, SARS-CoV-2 S protein trimer (SARS-CoV-2, UniProt P0DTC2 16-1213). Description: column Fc/S-T (format not explained).
B2 yielded a Kd of 0.0193 µM.
Same read-out and setting: the value for B3 was 0.01 µM; that for B5 was 0.014 µM; that for B7 was 0.0096 µM.

The target of another test is T2, SARS-CoV-2 S protein trimer. Put plainly: column DC/S-T (format not explained).
B8 had a Kd of 1740 µM.

The next test addresses SARS-CoV-2 S1 RBD (SARS-CoV-2, UniProt P0DTC2 319-541).
Assay: not given
Turning to B4, it took 0.0143 µM to reach half-maximal inhibition (IC50).

The target in a further test is T2, SARS-CoV-2 S protein trimer. Description: column DB/S-T (format not explained).
B2 had an equilibrium dissociation constant (Kd) of 0.0361 µM.
Still for that read-out and setting: to B6 belongs 0.304 µM.

In another test the target is T1, SARS-CoV-2 Spike Glycoprotein S1 ….
Assay: not given
B1: 0.0322 µM corresponded to half-maximal inhibition (IC50).

The target is the same in a further test. Description: ELISA binding titration.
Molecule B9 showed an EC50 of 0.00792 µM.
B4 came in with an EC50 of 0.0103 µM.
On to B5, for which the EC50 was 0.00215 µM.
Still for that read-out and setting: to B6 belongs 0.000523 µM; to B7, 0.000148 µM.
On the same count and under the same terms, to B8 belongs 0.0175 µM.

A further test has the same target. Put plainly: column Fc/S1 (format not explained).
As to B1, the Kd worked out at 2.98 µM.
Still for that read-out and setting: the value for B5 was 0.0061 µM.
Molecule B7 had a Kd of 0.0096 µM.

For another test the target is unchanged. Put plainly: screening phage ELISA, mean. This is another data set of the same source.
Turning to B1, the “ELISA (Avg)” value was determined as 17.9.
Still for that read-out and setting: to B2 belongs 23.8; to B3, 27.4; to B4, 21.7.
Same read-out and setting: the value for B5 was 25.7; that for B6 was 24.2.
Regarding B7, the “ELISA (Avg)” value amounted to 27.2.
The same measure, in the same setting: to B8 belongs 17.6.

A further test has the same target. Put plainly: column Inhibitor IC50 (assay not explained).
B4 returned an IC50 of 1.43 µM.
The molecule B5 had an IC50 of 0.033 µM.

The target is the same in another test. Put plainly: column DC/S1 (format not explained); clone 1-27.
B7 displayed a Kd of 5.52 µM.

A further test has the same target. Put plainly: antibody kinetics, sensorgrams with fits; column S1.
B9 showed a Kd of 0.364 µM.
B5 registered a Kd of 0.0061 µM.

The target is the same in another test. Put plainly: column DC/S1 (format not explained).
B1 yielded an equilibrium dissociation constant (Kd) of 0.0148 µM. That is a double-digit nanomolar value.
Take B3: the Kd turned out to be 6.65 µM.
The same measure, in the same setting: to B8 belongs 0.0081 µM.
